Assay results: patent US20150203577A1 (Chugai, published 2015)
Residue numbers refer to the chain shown, from its start. Where two headings read alike, the source gives them in different places.

B1: H237-MB112/MRAL-k0 (antibody, mouse IgG1, kappa)
heavy: QVQLQESGPGLVKPSETLSLTCAVSGHSISHDHAWSWVRQPPGEGLEWIGFISYSGITNYNPSLQGRVTISRDNSKNTLYLQMNSLRAEDTAVYYCARSLARTTAMDYWGEGTLVTVSSAKTTPPSVYPLAPGSAAQTNSMVTLGCLVKGYFPEPVTVTWNSGSLSSGVHTFPAVLQSDLYTLSSSVTVPSSTWPSETVTCNVAHPASSTKVDKKIVPRDCGCKPCICTVPEVSFVFIFPPKPKDVLTITLTPKVTCVVVDISKDDPEVQFSWFVDDVEVHTAQTQPREEQFNSTFRSVSELPIMHQDWLNGKEFKCRVNSAAFPAPIEKTISKTKGRPKAPQVYTIPPPKEQMAKDKVSLTCMITDFFPEDITVEWQWNGQPAENYKNTQPIMDTDGSYFVYSKLNVQKSNWEAGNTFTCSVLHEGLHNHHTEKSLSHSPGK
light: not shown
notes: copies: 2 + 2
B2: H237-MB726/MRAL-k0 (antibody, mouse IgG1, kappa)
heavy: B1 heavy with T229E, P231Y, V233E, S234E, F235D
light: not shown
notes: copies: 2 + 2
B3: H237-MB159/MRAL-k0 (antibody, mouse IgG1, kappa)
heavy: B1 heavy with F235S, F237T
light: not shown
notes: copies: 2 + 2
B4: H237-MB867/MRAL-k0 (antibody, mouse IgG1, kappa)
heavy: B1 heavy with T229E, V230P, P231N, S234E, F235I, K264D, A322D, A323G
light: not shown
notes: copies: 2 + 2
B5: H237-MB725/MRAL-k0 (antibody, mouse IgG1, kappa)
heavy: B1 heavy with T229E, V230T, P231Y, V233E, S234E, F235D
light: not shown
notes: copies: 2 + 2
B6: H237-MB723/MRAL-k0 (antibody, mouse IgG1, kappa)
heavy: B1 heavy with T229E, V230D, P231Y, V233E, S234E, F235D
light: not shown
notes: copies: 2 + 2
B7: H237-MB868/MRAL-k0 (antibody, mouse IgG1, kappa)
heavy: B1 heavy with T229E, V230P, P231N, S234E, F235I, K264D, N320D, A322D, A323G
light: not shown
notes: copies: 2 + 2
B8: H237-MB146/MRAL-k0 (antibody, mouse IgG1, kappa)
heavy: B1 heavy with F235S, F237D
light: not shown
notes: copies: 2 + 2
B9: H237-MB208/MRAL-k0 (antibody, mouse IgG1, kappa)
heavy: B1 heavy with F235S, S263M
light: not shown
notes: copies: 2 + 2
B10: H237-MB729/MRAL-k0 (antibody, mouse IgG1, kappa)
heavy: B1 heavy with T229E, V230P, P231N, V233E, S234E, F235D
light: not shown
notes: copies: 2 + 2
B11: H237-MB258/MRAL-k0 (antibody, mouse IgG1, kappa)
heavy: B1 heavy with F235S, S294H
light: not shown
notes: copies: 2 + 2
B12: H237-MB732/MRAL-k0 (antibody, mouse IgG1, kappa)
heavy: B1 heavy with T229E, V230P, P231N, V233E, S234E, F235L
light: not shown
notes: copies: 2 + 2
B13: H237-MB866/MRAL-k0 (antibody, mouse IgG1, kappa)
heavy: B1 heavy with T229E, V230P, P231N, S234E, F235I, A322D, A323G
light: not shown
notes: copies: 2 + 2
B14: H237-MB727/MRAL-k0 (antibody, mouse IgG1, kappa)
heavy: B1 heavy with T229E, V230P, P231A, V233E, S234E, F235D
light: not shown
notes: copies: 2 + 2
B15: H237-MB869/MRAL-k0 (antibody, mouse IgG1, kappa)
heavy: B1 heavy with T229E, V230P, P231N, S234E, F235I, K264D, A322D, A323G, E329Y
light: not shown
notes: copies: 2 + 2
B16: H237-MB147/MRAL-k0 (antibody, mouse IgG1, kappa)
heavy: B1 heavy with F235S, F237E
light: not shown
notes: copies: 2 + 2
B17: H237-MB870/MRAL-k0 (antibody, mouse IgG1, kappa)
heavy: B1 heavy with T229E, V230P, P231N, S234E, F235I, K264D, A322D, A323G, K330R
light: not shown
notes: copies: 2 + 2
B18: H237-MB731/MRAL-k0 (antibody, mouse IgG1, kappa)
heavy: B1 heavy with T229E, V230P, P231A, V233E, S234E, F235L
light: not shown
notes: copies: 2 + 2
B19: H237-MB724/MRAL-k0 (antibody, mouse IgG1, kappa)
heavy: B1 heavy with T229E, V230N, P231Y, V233E, S234E, F235D
light: not shown
notes: copies: 2 + 2
B20: H237-MB730/MRAL-k0 (antibody, mouse IgG1, kappa)
heavy: B1 heavy with T229Q, V230P, P231N, V233E, S234E, F235D
light: not shown
notes: copies: 2 + 2
B21: H237-MB125/MRAL-k0 (antibody, mouse IgG1, kappa)
heavy: B1 heavy with F235W
light: not shown
notes: copies: 2 + 2
B22: H237-MB722/MRAL-k0 (antibody, mouse IgG1, kappa)
heavy: B1 heavy with T229E, V230A, P231Y, V233E, S234E, F235D
light: not shown
notes: copies: 2 + 2

Legend:
[1] = biological target: T1, mouse FcγRII extracellular domain, C-terminal His tag (mouse, UniProt P08101 30-210); experiment: SPR (Biacore T200); KD of H237-mIgG1/MRAL-k0 / KD of variant
T1 construct: Whole entry named; also called mFcγRII; mFcgRII
T1 sequence: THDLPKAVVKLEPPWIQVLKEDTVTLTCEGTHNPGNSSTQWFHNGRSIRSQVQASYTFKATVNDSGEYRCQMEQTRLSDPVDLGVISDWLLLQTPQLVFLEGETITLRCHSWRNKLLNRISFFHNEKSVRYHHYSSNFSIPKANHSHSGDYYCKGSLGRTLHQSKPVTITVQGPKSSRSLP

[2] = biological target: T2, mouse FcγRIII extracellular domain, C-terminal His tag (mouse, UniProt P08508 31-215); experiment: as above
T2 construct: Whole entry named; also called mFcγRIII; mFcgRIII
T2 chain: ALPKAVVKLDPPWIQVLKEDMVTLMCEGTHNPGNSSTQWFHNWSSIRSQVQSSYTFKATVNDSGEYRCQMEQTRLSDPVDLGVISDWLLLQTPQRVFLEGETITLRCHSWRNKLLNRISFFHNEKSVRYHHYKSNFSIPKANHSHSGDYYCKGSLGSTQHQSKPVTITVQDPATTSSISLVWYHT

[3] = biological target: T1, mouse FcγRII extracellular domain, …; experiment: as above; remark: listed apart in the source
Excerpt: (§1) The antibody H chain variable region used was the variable region H237 (SEQ ID NO: 1) of the H chain VH3-IgG1 of the anti-IL-6 receptor antibody Fv4-IgG1 described in WO2009/125825. The antibody L chain commonly used was the L chain MRAL-k0 (SEQ ID NO: 2) of the anti-IL-6 receptor antibody tocilizumab. The aforementioned 11 variants were used as templates to introduce the alteration. These variants were expressed and purified by the method of Reference Example 1 and evaluated for their binding to mFcγRII and mFcγRIII by the method of Reference Example 2 using Biacore T200.
(§2) Each altered antibody was analyzed for its interaction with each Fcγ receptor prepared above using Biacore T100 (GE Healthcare Japan Corp.), Biacore T200 (GE Healthcare Japan Corp.), Biacore A100, or Biacore 4000. The running buffer used was HBS-EP+ (GE Healthcare Japan Corp.). The assay temperature was set to 25° C. The sensor chips used were chips prepared by immobilizing Protein L (ACTIGEN or BioVision) onto Series S Sensor Chip CM5 (GE Healthcare Japan Corp.) or Series S Sensor Chip CM4 (GE Healthcare Japan Corp.) by the amine coupling method.
(§3) In order to calculate the KD value of each altered antibody for FcγR, kinetic analysis was conducted according to the following method: first, the antibody of interest was captured onto any of these chips and allowed to interact with mFcγR diluted with a running buffer. For the obtained sensorgram, the assay results were globally fit into the 1:1 Langmuir binding model using Biacore Evaluation Software to calculate an association rate constant ka (L/mol/s) and a dissociation rate constant kd (1/s). From these values, the dissociation constant KD (mol/L) was calculated.

[4] = biological target: T2, mouse FcγRIII extracellular domain, …; experiment: as above
Excerpt: as §1, §2, §3

[5] = biological target: T1, mouse FcγRII extracellular domain, …; experiment: SPR (Biacore T200); KD of H237-MB716/MRAL-k0 / KD of variant
Excerpt: (§4) The antibody H chain variable region used was the variable region H237 (SEQ ID NO: 1) of the H chain VH3-IgG1 of the anti-IL-6 receptor antibody Fv4-IgG1 described in WO2009/125825. The antibody L chain commonly used was the L chain MRAL-k0 (SEQ ID NO: 2) of the anti-IL-6 receptor antibody tocilizumab. H237-MB716/MRAL-k0 was used as a template to introduce the alterations. These variants were expressed and purified by the method of Reference Example 1 and evaluated for their binding to mFcγRII and mFcγRIII by the method of Reference Example 2 using Biacore T200.
as §2

[6] = biological target: T2, mouse FcγRIII extracellular domain, …; experiment: as above
Excerpt: as §4, §2

[7] = biological target: T1, mouse FcγRII extracellular domain, …; experiment: SPR (Biacore T200); KD of H237-mIgG1/MRAL-k0 / KD of variant; remark: listed apart in the source
Excerpt: as §4, §2

[8] = biological target: T2, mouse FcγRIII extracellular domain, …; experiment: as above
Excerpt: as §4, §2

Binder | relative mFcγRII-binding activity (mIgG1 = 1) [1] | relative mFcγRIII-binding activity (mIgG1 = 1) [2] | relative mFcγRII-binding activity (mIgG1 = 1) [3] | relative mFcγRIII-binding activity (mIgG1 = 1) [4] | other results
B1 | 0.47 fold | 0.27 fold | – | – | –
B2 | – | – | 35.7 fold | 2.08 fold | –
B3 | 0.37 fold | 0.28 fold | – | – | –
B4 | – | – | – | – | relative mFcγRII-binding activity (MB716 = 1) [5]: 8.1 fold; relative mFcγRIII-binding activity (MB716 = 1) [6]: 14.3 fold; relative mFcγRII-binding activity (mIgG1 = 1) [7]: 35.2 fold; relative mFcγRIII-binding activity (mIgG1 = 1) [8]: 0.85 fold
B5 | – | – | 24.3 fold | 1.39 fold | –
B6 | – | – | 14.1 fold | 0.72 fold | –
B7 | – | – | – | – | relative mFcγRII-binding activity (MB716 = 1) [5]: 8.4 fold; relative mFcγRIII-binding activity (MB716 = 1) [6]: 14.4 fold; relative mFcγRII-binding activity (mIgG1 = 1) [7]: 36.6 fold; relative mFcγRIII-binding activity (mIgG1 = 1) [8]: 0.86 fold
B8 | 0.85 fold | 0.21 fold | – | – | –
B9 | 0.4 fold | 0.26 fold | – | – | –
B10 | – | – | 10.4 fold | 0.53 fold | –
B11 | 0.37 fold | 0.32 fold | – | – | –
B12 | – | – | 0.84 fold | 0.03 fold | –
B13 | – | – | – | – | relative mFcγRII-binding activity (MB716 = 1) [5]: 3 fold; relative mFcγRIII-binding activity (MB716 = 1) [6]: 3.02 fold; relative mFcγRII-binding activity (mIgG1 = 1) [7]: 13 fold; relative mFcγRIII-binding activity (mIgG1 = 1) [8]: 0.18 fold
B14 | – | – | 11.7 fold | 0.66 fold | –
B15 | – | – | – | – | relative mFcγRII-binding activity (MB716 = 1) [5]: 9.4 fold; relative mFcγRIII-binding activity (MB716 = 1) [6]: 15.8 fold; relative mFcγRII-binding activity (mIgG1 = 1) [7]: 41 fold; relative mFcγRIII-binding activity (mIgG1 = 1) [8]: 0.94 fold
B16 | 0.95 fold | 0.36 fold | – | – | –
B17 | – | – | – | – | relative mFcγRII-binding activity (MB716 = 1) [5]: 8.9 fold; relative mFcγRIII-binding activity (MB716 = 1) [6]: 17.6 fold; relative mFcγRII-binding activity (mIgG1 = 1) [7]: 38.6 fold; relative mFcγRIII-binding activity (mIgG1 = 1) [8]: 1.05 fold
B18 | – | – | 7.13 fold | 0.03 fold | –
B19 | – | – | 20.8 fold | 1.19 fold | –
B20 | – | – | 7.24 fold | 0.43 fold | –
B21 | 0.81 fold | 0.48 fold | – | – | –
B22 | – | – | 33.3 fold | 1.35 fold | –
